# Laboratory results published in the supplement of paper PMC10724198.
# ± gives the standard deviation of the averaged measurements.
# Test system: Saccharomyces cerevisiae
# Assay: protein stability index of tFT-peptide fusion (C-terminal peptide) (PSI (0-1 scale)); higher = more stable (slower turnover)
# Conditions: genetic background: wild type; temperature: 30 C
# Procedure: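 Multiplexed protein stability (MPS) profiling in S. cerevisiae. Random 12-aa peptides (tFT-X12 library) are fused to the C-terminus of a sfGFP-mCherry tandem fluorescent timer, after mCherry and a GGGS linker. Cells are FACS-sorted into 8 mCherry/sfGFP bins and deep-sequenced. The protein stability index (PSI) is the read-weighted bin average, scaled from 0 (unstable) to 1 (stable). Only peptides with >10 reads are reported; cells were grown at 30 °C in SC-His with glucose.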
# 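Further: PSI is a weighted mean of sequencing reads over stability bins, variants kept only with over 10 reads, mCherry proximal and sfGFP distal, peptide attached via GGGS linker.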
row,Sequence,protein stability index
1,LVDEGRGLRWSR,0.679 ± 0.0075
2,LFGTGVRCGVCS,0.637 ± 0.092
3,LPPCSPLIFYFH,0.636 ± 0.032
4,LRVVISWGLDLY,0.529 ± 0.02
5,FFSPFSPALYTS,0.756 ± 0.014
6,GGPGWGVSGWEG,0.705 ± 0.015
7,LKPLRTWLSGSA,0.719 ± 0.019
8,GVLQEYIGKKQK,0.723 ± 0.043
9,LHTSTRPLPPTS,0.675 ± 0.067
10,SPSPPLASPPPL,0.686 ± 0.016
11,LSRVLQAPRRGG,0.681 ± 0.0075
12,LLPNLFDSQFRE,0.756 ± 0.044
13,NTNPVHLKTHQT,0.713 ± 0.011
14,SRYERLFSDNRG,0.718 ± 0.019
15,VLLYAPLLPPLA,0.622 ± 0.018
16,LADFLGVSLLAV,0.5695 ± 0.0031
17,VGVSGEGFSWGG,0.674 ± 0.019
18,LHPPLTLTFYLS,0.555 ± 0.0089
19,HLGPPPGRVFAV,0.6194 ± 0.0052
20,RVVWVWLMSALF,0.54 ± 0.034
21,IKKKNQKHKKKN,0.7114 ± 0.0029
22,RSFPPPPARSLP,0.711 ± 0.039
23,VRALGRDGIRQC,0.602 ± 0.015
24,PEITWFVIGVIE,0.541 ± 0.043
25,GSRLIGGFIVVG,0.6365 ± 0.0021

row,Sequence,protein stability index
1,QPITEALHDSCT,0.675 ± 0.098
2,PLPAFPRLAIQP,0.691 ± 0.021
3,GTLGRMVTPAAW,0.6358 ± 0.0039
4,RLFCLRSVSLVS,0.572 ± 0.015
5,FAISPCVSLAFF,0.642 ± 0.05
6,PRPPHPPPSSPR,0.69 ± 0.096
7,GRGEEKRDGGRR,0.673 ± 0.059
8,RCLSRLSALGTD,0.624 ± 0.076
9,NGKKYWQEYGWG,0.686 ± 0.025
10,IPGHRHTKRIFG,0.641 ± 0.012
11,ARLHIPSLLPAS,0.6798 ± 0.0057
12,PPEPVRHTSGLS,0.807 ± 0.059
13,EREREKGEEEEG,0.629 ± 0.0079
14,TLFQGHQLFKSR,0.737 ± 0.0068
15,VLGVVGNYFESA,0.668 ± 0.078
16,RKKNVYGKKIKI,0.656 ± 0.083
17,PPPYHPDATFTT,0.7063 ± 0.0025
18,CPGTSRADFSAV,0.681 ± 0.044
19,KKTEKKYNRNRG,0.786 ± 0.1
20,RGKREEQVRGGD,0.622 ± 0.035
21,LFLSIRRFRCRL,0.58 ± 0.057
22,VRLIGVSVGALE,0.579 ± 0.068
23,PFPLGPSLQTVI,0.681 ± 0.028
24,GCRDQKLGVGVD,0.759 ± 0.064
25,FRISWLRVKGRG,0.676 ± 0.035

row,Sequence,protein stability index
1,LLFSTPWVWCLL,0.623 ± 0.051
2,KNITIKKSKIKD,0.61 ± 0.055
3,KKLGLINITIRV,0.535 ± 0.017
4,LPPSPPDPTPPP,0.594 ± 0.0095
5,GKVCVLKLSPWI,0.814 ± 0.16
6,VPRCLPVGLLFF,0.71 ± 0.19
7,TSSYFVLFLTSP,0.635 ± 0.087
8,RGASKYDGDSRR,0.668 ± 0.016
9,RSCAHATLAYVP,0.771 ± 0.082
10,SPVQHPKHIQPG,0.656 ± 0.008
11,GAVSRRALPRRP,0.709 ± 0.016
12,PPPPPPPLPLPP,0.64 ± 0.011
13,PPLPPPPASPPP,0.589 ± 0.045
14,CFGRSPWLTINV,0.6171 ± 0.0046
15,WQCRAPRFEKGV,0.696 ± 0.08
16,RITVPIGYHSVS,0.6891 ± 0.0009
17,GRCLGREGVCGL,0.673 ± 0.018
18,WCQREPSSKYKI,0.578 ± 0.054
19,SPPPGSRTFAFR,0.697 ± 0.042
20,RPPLLPPLDAPS,0.713 ± 0.027
21,RGGWGGGGAAGS,0.649 ± 0.053
22,ESKERKTRKLKK,0.677 ± 0.048
23,KKIEAKGMRNDS,0.599 ± 0.055
24,KNRAEMREGIAL,0.63 ± 0.018
25,PPSPPPPLSLSP,0.6853 ± 0.0033

row,Sequence,protein stability index
1,QGRIVSVILLSL,0.557 ± 0.023
2,MPPRVLSALAPL,0.642 ± 0.0023
3,FSKTYTIMLITI,0.538 ± 0.0077
4,FSSLFLSLLCPP,0.727 ± 0.073
5,IKTKKKKKKKRD,0.686 ± 0.0099
6,PPLGITHPSFPS,0.787 ± 0.025
7,TRAGRGGCASQD,0.701 ± 0.028
8,GGTGRGGEMGGR,0.7428 ± 0.0069
9,FGVRTLTFISRT,0.637 ± 0.0081
10,LRYARAPFPAPP,0.699 ± 0.024
11,EPNKGTNMKVND,0.705 ± 0.048
12,VPLRGPAPPRPR,0.739 ± 0.035
13,GRKAEAEASLFS,0.643 ± 0.1
14,RKRSRQLNRQLK,0.603 ± 0.0074
15,KREKGLKQIVRL,0.6827 ± 0.0029
16,GIPIQKLEYMCK,0.669 ± 0.019
17,GSRPPPRPLFPS,0.697 ± 0.048
18,LTPGFSRIDRAP,0.718 ± 0.062
19,KKIQKKTPAIDG,0.671 ± 0.1
20,KSGLMFCIGDWC,0.7 ± 0.044
21,KVQRINNKKERK,0.677 ± 0.044
22,YAGARGPMNRGS,0.701 ± 0.015
23,LHSPATAPHRPP,0.67 ± 0.022
24,LSSTIFHRSCVR,0.759 ± 0.02
25,KSRKEREKSDNQ,0.678 ± 0.037

row,Sequence,protein stability index
1,CAVVSRYQPLSL,0.7092 ± 0.006
2,CFPPSLVPRPTY,0.673 ± 0.054
3,DLILECRYEVGV,0.667 ± 0.053
4,KHDIEYRTQIKK,0.662 ± 0.033
5,PLLLPPVPPFCF,0.674 ± 0.12
6,RMRRAHCQQSGG,0.6537 ± 0.0037
7,KINELGYMNLKM,0.716 ± 0.013
8,YSGRCGVKLFNG,0.705 ± 0.073
9,RGFGFAYVSEHI,0.708 ± 0.075
10,LTRQCLLPGWGL,0.707 ± 0.067
11,DWVLGRRDTRKP,0.752 ± 0.025
12,PNFSLPSLPHFP,0.747 ± 0.017
13,YSIAYGVLWRYR,0.5687 ± 0.0051
14,KGGSVNRLSQVR,0.6713 ± 0.00097
15,GGSRGGTFLWGP,0.672 ± 0.036
16,PLSLSSPPLFLL,0.639 ± 0.0006
17,AGPWMESPTKSC,0.702 ± 0.023
18,WGECGVWVGLWG,0.709 ± 0.051
19,RILVFCPSSFGL,0.64 ± 0.018
20,ERALYGFSSIFY,0.667 ± 0.075
21,PFPPRRLLSAPP,0.671 ± 0.039
22,RSPPLEPTLDPL,0.785 ± 0.1
23,WADYLWFGLNGG,0.712 ± 0.028
24,KKKEKQRQSKRR,0.689 ± 0.026
25,LCVLFVSKPTPE,0.67 ± 0.019

row,Sequence,protein stability index
1,SYTLSGYGSRDN,0.698 ± 0.018
2,YGFLRSWCICDT,0.729 ± 0.098
3,GGTGGRLGVGHV,0.704 ± 0.073
4,KELNRRTNSPSE,0.644 ± 0.046
5,LGGWWVWSWGRG,0.66 ± 0.023
6,SAFLPPLSPFSP,0.753 ± 0.037
7,LNRTLCYKCILR,0.564 ± 0.018
8,KKKIRKKKVRRK,0.649 ± 0.024
9,VNLSNLRPCPTR,0.707 ± 0.065
10,PSPPPAPPPHSP,0.665 ± 0.022
11,EVCTFPGSIRSS,0.521 ± 0.023
12,DRPDLVLAGVCG,0.756 ± 0.06
13,AGVVCGGGWWWA,0.772 ± 0.12
14,GGRCGSVGRGGA,0.735 ± 0.065
15,KKKKTKPKPKRM,0.6594 ± 0.0047
16,KKKKNHKRKKRN,0.828 ± 0.041
17,ASPFGFLFCCGG,0.654 ± 0.025
18,KFNNIQNWRLAY,0.787 ± 0.098
19,KKIQKKKKLIPQ,0.7247 ± 0.0058
20,SVGLPPPPPFPP,0.629 ± 0.017
21,RSLYGLMNPPRG,0.71 ± 0.011
22,VLSSASRGSRCL,0.707 ± 0.17
23,DGARECRDDVCS,0.675 ± 0.017
24,PPPPPPSVLSPP,0.722 ± 0.061
25,EGRGQRGARAAQ,0.7181 ± 0.0034

row,Sequence,protein stability index
1,LVAFNCVVLGKG,0.686 ± 0.014
2,PPSPTPPALPAP,0.688 ± 0.018
3,CGGCPGCDIHMG,0.655 ± 0.082
4,GMSFNVPLWGSI,0.69 ± 0.086
5,SSASLIPPPPVP,0.693 ± 0.053
6,GGGRGTGVEFGA,0.7 ± 0.03
7,GWMGGFLVMSID,0.686 ± 0.037
8,VPFFLSNSSHIK,0.679 ± 0.051
9,IQDVGLKRLARV,0.675 ± 0.061
10,YVSYVFDYEVRH,0.709 ± 0.051
11,PHPDPDHCHAPP,0.713 ± 0.1
12,GEQLNWSREPWY,0.735 ± 0.038
13,AVSFGSTLANWA,0.718 ± 0.062
14,LHPSPQRHKTLQ,0.743 ± 0.017
15,KKEISSTAGIIV,0.637 ± 0.073
16,WGGRSGTWGLVG,0.803 ± 0.1
17,QPSRQTIPWDTV,0.738 ± 0.037
18,LLLSPSRLPPAD,0.676 ± 0.043
19,RVFLAVCYGCRV,0.5659 ± 0.0034
20,VGSWVEVWGVIG,0.687 ± 0.041
21,EVGVRCRVGVWV,0.567 ± 0.029
22,CLFSVENNNILG,0.704 ± 0.0015
23,AELPPETKRLTR,0.626 ± 0.04
24,LLSLRSPCSSSR,0.697 ± 0.066
25,DVVFRLAFTDFC,0.693 ± 0.021

row,Sequence,protein stability index
1,LESCFFGSFFFL,0.778 ± 0.091
2,PLPPPPTLSCTQ,0.701 ± 0.11
3,PFLEPPYPLLRS,0.704 ± 0.17
4,ERRGRDRSQTLR,0.715 ± 0.014
5,PSPPPPPPPQPS,0.722 ± 0.059
6,TRLSRGTRVEYR,0.651 ± 0.025
7,DMDLAVTRHIRS,0.718 ± 0.1
8,LSPHSSLTPPPH,0.616 ± 0.037
9,PPQPRLTPSPPL,0.697 ± 0.028
10,CVLRTSQPSCPG,0.627 ± 0.023
11,PPPFPPPTLPPP,0.736 ± 0.039
12,ARAAQPVHFLNL,0.715 ± 0.059
13,RVSWRLSYLCPV,0.694 ± 0.14
14,LVCHDWFSFYMF,0.64 ± 0.035
15,TYSERADLCAQL,0.678 ± 0.016
16,GGYGGGWRGGGR,0.626 ± 0.077
17,PFPSLLPALSSL,0.678 ± 0.044
18,TSPLPTLLNDPP,0.523 ± 0.0081
19,GGRCAERSDWCG,0.647 ± 0.016
20,GKNAEENNIVRE,0.614 ± 0.083
21,EEWGSLEWTAGR,0.778 ± 0.019
